In the supplement of paper PMC10567573:
± gives the standard deviation.

Assay: protein stability index of a GFP-peptide fusion (GPS, HEK-293T) (PSI 1-6); higher = more stable
[1] = treatment: DMSO, c terminus: a fixed tail appended
[2] = treatment: MLN4924 1 uM, 8 h, c terminus: a fixed tail appended
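Further: 24-mer peptide tiles fused after GFP, lentivirally expressed, FACS-sorted into six equal bins by GFP/DsRed ratio, decoded by Illumina sequencing, PSI is the read-weighted mean bin number.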

Sequence	protein stability index [1]	protein stability index [2]	protein stability index (treatment: DMSO, c terminus: native)	protein stability index (treatment: MLN4924 1 uM, 8 h, c terminus: native)
DSISLHQPCNPPAPAGDKGFQPPS [DMRTC1]	5 ± 0.27	5 ± 0.16		
DTDVDMEGLRRRRGREAGPPQPMV [PBXIP1]	4.75 ± 0.36	5.04 ± 0.11		
DTREEKRFLGEGHHRVQENQMDKA [CHGB]	5.25 ± 0.13	5.16 ± 0.25		
DVKKEKLSPDIMKDAYVQKLVKVC [TENT5D]	2.94 ± 0.52	3.1 ± 0.076		
DVLSCEYYSPILDQWTPIAAMLRG [KLHL13]	2.2 ± 0.46	2.36 ± 0.23		
DVRLDREHRVAGIFPRLSFKDKST [CLPTM1]	3.79 ± 0.063	4 ± 0.089		
DYEAGQHMEDPRRAGKMLMTLPLL [ESRRG]	3.56 ± 0.29	3.52 ± 0.15		
EADENENITVVKGIRLSENVIDRM [CHCHD3]	4.75 ± 0.17	4.7 ± 0.11		
EAGAPGEEDIQGPTKADTEKWAEG [CHGB]	5.64 ± 0.29	5.59 ± 0.32		
EAGGKQKAVEEELDAEDRPAWNSK [SLC6A17]	5.62 ± 0.16	5.57 ± 0.15		
EAGSAGHVEVARLLLENGAGINTH [ANKRD17]	4.11 ± 0.36	4.25 ± 0.26		
EAIKGLNGQKPLGAAEPITVKFAN [ELAVL3]	3.94 ± 0.22	4.06 ± 0.28		
EAQISDPFAPEPTPPTTTAEIATA [SNAP91]	5.42 ± 0.28	5.46 ± 0.13		
EARSLEHTLPVNRETLKRKVSGNR [ESR2]	4.95 ± 0.27	5.16 ± 0.2		
EAVSTLLGAVAVFAVGYIKISWST [SLC19A2]	2.82 ± 0.21	2.98 ± 0.73		
EDEKQRLQNEVRQLTEKLARVNEN [SSNA1]	4.99 ± 0.35	5.17 ± 0.24		
EDGFGEHPFYHCLVAEVPKEHWTP [SAT1]	3.05 ± 0.22	3.12 ± 0.27		
EDGIHTLTCALMLLNTDLHGHNIG [PSD2]	2.78 ± 0.5	2.75 ± 0.36		

Sequence	protein stability index [1]	protein stability index [2]	protein stability index (treatment: DMSO, c terminus: native)	protein stability index (treatment: MLN4924 1 uM, 8 h, c terminus: native)
EDKTFGLKNKKGAKQQKFIKAVTH [ZC3H15]	4.26 ± 0.3	4.39 ± 0.23		
EDSNWEKSPDNEDSGDSKDIRLTL [GOLPH3L]	5.37 ± 0.16	5.37 ± 0.12		
EDTHQSPEPEDEPGGPGAMTESLE [RSPH3]	5.43 ± 0.38	5.64 ± 0.14		
EEEEAAMYEEEMEREEITTKKRKL [FAM50A]	5.66 ± 0.32	5.38 ± 0.34		
EEEMRSHYVAQTGILWLLMNNCFL [GAGE1]	3.15 ± 0.36	3.2 ± 0.35		
EEKEAWYREESDSLGQDLRRLRQE [DAPK3]	5.28 ± 0.31	5.35 ± 0.17		
EENELTSLAEDLLGLTDPNGGLA [TRADD]			5.14 ± 0.19	5.06 ± 0.43
EESGSSSASEEEDTKPKPTKRKRK [INTS3]	5.55 ± 0.17	5.57 ± 0.29		
EGDTVSQELLDTVLVNLVPAHKNL [PDS5B]	3.65 ± 0.24	3.94 ± 0.34		
EGIRQTEYTLTGLKFDMKYMNFRV [FSD1]	2.67 ± 0.54	2.56 ± 0.52		
EGLLNTYQELLGLSFEQMTDAHVW [NLN]	2.41 ± 0.32	2.49 ± 0.38		
EGQARCLAHLGRHMEALEIAANLE [C8orf76]	3.6 ± 0.42	3.74 ± 0.39		
EIFGPVTCVVPFDSEEEVIERANN [ALDH8A1]	5.18 ± 0.17	5.17 ± 0.22		
EIHSKTTAYSRLNETQPIDLSGLP [RNF180]	3.6 ± 0.14	3.75 ± 0.25		
EIVSIWILSFILAIPEAIGFVMVP [EDNRA]	2.86 ± 0.18	3.03 ± 0.17		
EKELVFDIDMTDYDDVRRCCSSAD [PRIM1]	4.73 ± 0.27	4.7 ± 0.35		
EKEYKTYKENFLKRFQLTKLPPYL [USP39]	2.5 ± 0.17	2.93 ± 0.28		
EKKESLGAAQEALSIQLQPKETQP [ZNF232]	5.35 ± 0.35	5.5 ± 0.19		
